Data from paper PMC9861716.

Molecular target: His-Fc-G67 polypeptide
Test: co-sedimentation; Herceptin on Herceptin-modified liposomes (Her-Lipo), evaluated semi-quantitatively by SDS-PAGE and silver staining; no data shown

- amount of Herceptin on Her-Lipo per 100 µg lipid (µg of Herceptin per 100 µg lipid): 0.4
Substance: Herceptin (trastuzumab) (antibody)
